From US20120208237A1 (Novo Nordisk, published 2012)

Target: T1, KIR2DS3 expressed on transfected cells (human, UniProt Q14952 22-304)
T1 construct: whole, on cells
Test: flow cytometry on cells transfected with KIR2DS3 (fifth column; its head is printed KIRDLS1 a second time, the legend's order gives KIR2DS3)
Description: The KIR2DL cross-reactive mAbs were then tested for their ability to react with KIR at the surface of cells by flow cytometry. Briefly, the binding of the human anti-KIR mAbs was tested by incubating them with various cell lines stably over-expressing KIRs (e.g., YTS-2DL1, BWZ-KIR2DL2 and BWZ-KIR2DS4) or not expressing KIRs (e.g., YTS and BWZ). Briefly, cells were incubated with various concentrations (typically 0-50 μg/ml) of human anti-KIR mAb1-7F9 in DMEM-medium containing 2% FCS. After incubation, cells were washed and incubated with APC-conjugated secondary antibodies specific for human IgG. All incubations and washing steps were performed at 0-4° C. Subsequently, cells were washed, resuspended in PBS, and analyzed by flow cytometry on a FACScalibur or a FACScanto (both from Beckton Dickinson).

T1 sequence (Q14952 22-304): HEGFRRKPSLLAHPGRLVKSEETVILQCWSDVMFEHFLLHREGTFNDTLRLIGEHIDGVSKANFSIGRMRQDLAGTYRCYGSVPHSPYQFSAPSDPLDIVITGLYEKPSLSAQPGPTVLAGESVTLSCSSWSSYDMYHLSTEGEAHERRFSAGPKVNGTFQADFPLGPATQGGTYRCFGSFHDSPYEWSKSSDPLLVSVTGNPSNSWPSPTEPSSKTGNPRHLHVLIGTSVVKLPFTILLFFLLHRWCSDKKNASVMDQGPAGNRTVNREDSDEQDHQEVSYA

binding result: no binding (tested: 1 µg/ml)
B1: human monoclonal antibody 1-7F9 (antibody, human IgG4, kappa, V domains shown)
VH: QVQLVQSGAEVKKPGSSVKVSCKASGGTFSFYAISWVRQAPGQGLEWMGGFIPIFGAANYAQKFQGRVTITADESTSTAYMELSSLRSDDTAVYYCARIPSGSYYYDYDMDVWGQGTTVTVSS
VL: EIVLTQSPVTLSLSPGERATLSCRASQSVSSYLAWYQQKPGQAPRLLIYDASNRATGIPARFSGSGSGTDFTLTISSLEPEDFAVYYCQQRSNWMYTFGQGTKLEIKR
notes: also called HuKIR 1-7F9; HuKIR1-7F9
